# In US20250312479A1:
# Biological target: CD2 (human) (UniProt P06729)
# Test: dTomato EVs from cells stably expressing the codon-optimized scFv on Jurkat T cells, flow cytometry
# Chain of UniProt P06729 (P06729 25-351): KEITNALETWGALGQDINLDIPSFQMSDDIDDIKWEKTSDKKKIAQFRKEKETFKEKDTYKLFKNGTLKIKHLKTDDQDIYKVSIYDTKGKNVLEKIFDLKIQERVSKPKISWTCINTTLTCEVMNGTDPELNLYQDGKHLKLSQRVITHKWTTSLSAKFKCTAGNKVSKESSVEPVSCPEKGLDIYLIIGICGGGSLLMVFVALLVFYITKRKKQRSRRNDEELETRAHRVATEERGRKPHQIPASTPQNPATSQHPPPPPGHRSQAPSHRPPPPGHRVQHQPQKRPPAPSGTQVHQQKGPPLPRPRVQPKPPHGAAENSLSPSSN
binder,measurement,value
"anti-CD2 scFv displayed on EVs via the PDGFR transmembrane domain, helical (α-helix) linker (scFv) scFv: DYKDHDGDYKDHDIDYKDDDDKNIMMTQSPSSLAVSAGEKVTMTCKSSQSVLYSSNQKNYLAWYQQKPGQSPKLLIYWASTRESGVPDRFTGSGSGTDFTLTISSVQPEDLAVYYCHQYLSSHTFGGGTKLEIKRGGGGSGGGGSGGGGSQLQQPGAELVRPGSSVKLSCKASGYTFTRYWIHWVKQRPIQGLEWIGNIDPSDSETHYNQKFKDKATLTVDKSSGTAYMQLSSLTSEDSAVYYCATEDLYYAMEYWGQGTSVTVSSDQSNSEEAKKEEAKKEEAKKSNSAVGQDTQEVIVVPHSLPFKVVVISAILALVVLTIISLIILIMLWQKKPR",fold increase of EV binding over non-targeted EVs,> 100 fold
